In the nanobody polyreactivity screen of Harvey et al. (2022):

Assay: yeast display, Sf9 membrane polyspecificity reagent, FACS + sequencing; frameworks hold sequencing errors
Summary of the method: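 Polyreactivity labels are assigned by the sorting gate from which each nanobody was recovered. The gates were low and high (top ~1%), set on anti-HA fluorescence for expression and streptavidin fluorescence for reagent binding. Before sorting, galactose-induced (36–48 hours) yeast display cells were stained for 1 hour at 4 °C with 10% biotinylated, detergent-solubilized Sf9 membrane reagent.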

| Sequence | polyreactivity (PSR sort gate) |
| --- | --- |
| QVQLVESGGGLVQAGGSLRLSCAASGRTLQRNAMGWYRQAPGKERELVADISWSGASTYYADSVKGRFTISRDNAKNTVYLQMNSLKPEDTAVYYCAATYIDRGNIYDYWGQGTQVTVSS | high polyreactivity |
| QVQLVESGGGLVQAGGSLRLSCAASGRTLQWNAMGWYRQAPGKERELVATISSGGSTKYADSVKGRFTISRDNAKNTVYLQMNSLKPEDTAVYYCNAQPFGMYYHRYYYWGQGTQVTVSS | low polyreactivity |
| QVQLVESGGGLVQAGGSLRLSCAASGRTLRKYAMGWYRQAPGKERELVAAISSSGGNTYYADSVKGRFTISRDNAKNTVYLQMNSLKPEDTAVYYCAAGFYYPTARVGYYYWGQGTQVTVSS | high polyreactivity |
| QVQLVESGGGLVQAGGSLRLSCAASGRTLRTYAMGWYRQAPGKERELVAAITSSGGRTYYADSVKGRFTISRDNAKNTVYLQMNSLKPEDTAVYYCAAARYYYGGDYWGQGTQVTVSS | high polyreactivity |
| QVQLVESGGGLVQAGGSLRLSCAASGRTLRTYTMGWYRQAPGKERELVAAISSSDDSTYYADSVKGRFTISRDNEKNTVYLQMNSLKPEDNAVYSCAKDGLYPTEYGYWGQGTQVTVSS | high polyreactivity |
| QVQLVESGGGLVQAGGSLRLSCAASGRTLRYYAMGWYRQAPGKERELVAAISRRGGRTYYADSVKGRFTISRDNAKNTVYLQMNSLKPEDTAVYYCNARYDVYRWRYDYDYWGQGTQVTVSS | high polyreactivity |
| QVQLVESGGGLVQAGGSLRLSCAASGRTLSHYAMGWYRQAPGKERELVAAISQSGGSTRYADSVKGRFTISRDNAKNTVYLQMISLKPEDTAVYYCAVRQLYSYPGDRRGYYWGQGTQVTVSS | high polyreactivity |
| QVQLVESGGGLVQAGGSLRLSCAASGRTLSRNAMGWYRQAPGKERELVAAINYSGGITYYADSVKGRFTISRDNAKNTVYLQMNSLKPEDTAVYYCAATVKYWGQGTQVTVSS | high polyreactivity |
| QVQLVESGGGLVQAGGSLRLSCAASGRTLSVNAMGWYRQAPGKERELVAAITWGGGSTYYADSVKGRFTISRDNAKNTVYLQMNSLKPEDTAVYYCNADPGWTELEYDYWGQGTQVTVSS | low polyreactivity |
| QVQLVESGGGLVQAGGSLRLSCAASGRTLSYNTMGWYRQAPGKEREFVAANTWSGGSTNYADSVKGRFTISRDNAKNTVYLQMNSLKPEDTAVYYCNADYLTVSWSIPEHVTVRLMYYWGQGTQVTVSS | low polyreactivity |
| QVQLVESGGGLVQAGGSLRLSCAASGRTLTGNAMGWYRQAPGKERELVAAISWSAGSTYYADSVKGRFTISRDNAKNTVYLQMNSLKPEDTAVYYCALTLRRNLVRMGYWGLGTQVTVSS | high polyreactivity |
| QVQLVESGGGLVQAGGSLRLSCAASGRTLTQYAMGWYRQAPGTERELVAAINTSGDSTYYADSVKGRFTISRDNAKNTVYLQMNSLKPEDTAVYYCAADGFWSQLYHLYNGYDYWGQGTQVTVSS | low polyreactivity |
| QVQLVESGGGLVQAGGSLRLSCAASGRTLVPYAMGWYRQAPGKERELVAAINSSGGSTYYADSVKGRFTISRDNAKNTVYLQMNSLKPEDTAVYYCAATRYSKYYWGQGTQVTVSS | high polyreactivity |
| QVQLVESGGGLVQAGGSLRLSCAASGRTLVTNAMGWYRQAPGKERELVAAIDSDDGTTYYADSVKGRFTISRDNAKKTVYLQMNSLKPEDTAVYYCAAESYWRDDYWGQGTQVTVSS | low polyreactivity |
| QVQLVESGGGLVQAGGSLRLSCAASGRTLWSYTMGWYRQAPGKERELVARITIGGSTNYADSVKGRFTISRDNAKNTVYLQMNSLKPEDTAVYYCNARASYSYGSYLSKSYGFDYWGQGTQVTVSS | high polyreactivity |
| QVQLVESGGGLVQAGGSLRLSCAASGRTLYGNVMGWYRQAPGKERELVAAISRRGGSTSYADSVKGRFTISRDNAKNTVYLQMNSLKPEDTAVYYCAAGRQRYAFKYYYWGQGTQVTVSS | high polyreactivity |
| QVQLVESGGGLVQAGGSLRLSCAASGRTLYHNAMGWYRQAPGKERELVAAISYRGTRTYYADSVKGRFTISRDKAKNTVYLQKNSLTPEDTAVYYCAADTTYATKSDYWGQGTQVTVSS | high polyreactivity |
| QVQLVESGGGLVQAGGSLRLSCAASGRTLYPYAMGWYRQAPGKERELVAAISSTGGRTYYADSVKGRFTISRDNAKNTVYLQMNSLKPEDTAVYYCAAIYRAQYDYWGQGTQVTVSS | high polyreactivity |
| QVQLVESGGGLVQAGGSLRLSCAASGRTLYRNAMGWYRQSPWKDREFVSRITWSGASTYYADSVKGRFTISRDNAKNTVYLQMNSLKPEDTAVYYCAAQYLSRRYGPYYTYNYWGQGTQVTVSS | high polyreactivity |
| QVQLVESGGGLVQAGGSLRLSCAASGRTLYYKAMGWYRQAPGKERELVAAISRSGGSTYYADSVKGRFTISRDNAKNTVYLQMNSLKPEDTAVYYCAVLPSYTSWESSDYWGQGTQVTVSS | high polyreactivity |
| QVQLVESGGGLVQAGGSLRLSCAASGRTLYYNTMGWYRQAPGKERELVASIRWDGGSTNYADSVNGRFTISRDNAKNTVYLQMNSLKPEDTAVYYCNADPGWTELEYDYWGQGTQVTVSS | low polyreactivity |
| QVQLVESGGGLVQAGGSLRLSCAASGRTMWAYSMGWYRPAHGKERELVAAITGSGGSTYYADSVKGRFTISRDNAKNTVYLQMNSLKPEDTAVYYCAAYSRTLHYDSWGQGTHVTVSS | high polyreactivity |

| Sequence | polyreactivity (PSR sort gate) |
| --- | --- |
| QVQLVESGGGLVQAGGSLRLSCAASGRTSASNAMGWYREAPGKERELVATIDGIDGNTYYADSVKGRFTISRDNAKNTVYLQMNSLKPEDTAVYYCNVESWRLQAIYKYSYWGQGTQVTVSS | low polyreactivity |
| QVQLVESGGGLVQAGGSLRLSCAASGRTSAWYAMGWYRQAPGKERELVADISGSADSTYYADSVKGRFTISRDNAKNTVYLQMNSLKPEDTAVYYCATSISTPSGDPFDYWGQGTQVTVSS | low polyreactivity |
| QVQLVESGGGLVQAGGSLRLSCAASGRTSDGYAMGWYRPAPGKERELVAGITEGGGDTYYADSVKGRFTISRDNAKNTVYLQMNSLKPEDTAVYYCNAVEGSRLPYDYWGQGTQVTVSS | low polyreactivity |
| QVQLVESGGGLVQAGGSLRLSCAASGRTSDINTMGWYRQAPGKERELVAAISDSDGTTYYADSVKGRFTISRDNAKNTVYLQMNSLKPDDTAVYYCAAERATVKFGYWGQGTQVTVSS | low polyreactivity |
| QVQLVESGGGLVQAGGSLRLSCAASGRTSFGYAMGWYRQAPGKERELVAVISIGGTTYYADSVKGRFTISRDNAKNTVYLQMNSLKPEDTAVYYCAATPSNATGFLSYDYWGQGTQVTVSS | low polyreactivity |
| QVQLVESGGGLVQAGGSLRLSCAASGRTSGGNAMGWYRQAPGKERELVAAISLRGGGTYYADSVKGRFTISRDNAKNTVYLQMNSLIPEDTAVFYCAAEFTYYGARWGYLGDLDYWGQGTQVTVSS | high polyreactivity |
| QVQLVESGGGLVQAGGSLRLSCAASGRTSKRYAMGWYRQAPGKERELVASIRGGDGSTYYADSVKGRFTISRDNAKNTVYLQMNSLKPEDTAVYYCARASSYGYYYWGQGTQVTVSS | high polyreactivity |
| QVQLVESGGGLVQAGGSLRLSCAASGRTSLGYDMGWYRQAPGKERELVAAITRGGSTYYADSVKGRFTISRDNAKNTVYLQMNSLKPEDTAVYYCAARPWTSASYDYWGQGTQVTVSS | low polyreactivity |
| QVQLVESGGGLVQAGGSLRLSCAASGRTSLNYAMGWYRQAPGKERELVAAITRGGGGTYYADSVKGRFTISRDNAKNTVYLQMNSLIPEDTAVYYCNRVFSLYGYGWQKYDYWGQGTQVTVSS | high polyreactivity |
| QVQLVESGGGLVQAGGSLRLSCAASGRTSPRYAMGWYRQAPGKEREWVASISGSGGRTYYADSVKGRFTISRDNAKNTVYLQMNSLKPEDTAVYYCAASTQGNYYPYKRYDYCGQGTQVTVSS | high polyreactivity |
| QVQLVESGGGLVQAGGSLRLSCAASGRTSREYAMGWYRQAPGKERELVAAISWNGGSTYYADSVKGRFTISRDNAMNTVYLQMNSLKPEDTAVYYCAARGKGYYRFGYWGQGTQVTVSS | high polyreactivity |
| QVQLVESGGGLVQAGGSLRLSCAASGRTSSSNAMGWYRQAPGKERELVATISRTGSTYYADSVKGRFTISRDNAKNTVYLQMNSLKPEDTAVYYCNRYFSEALLHGSCYNRYYYWGQGTQVTVSS | low polyreactivity |
| QVQLVESGGGLVQAGGSLRLSCAASGRTSVLYAMGWYRQAPGKEREFVAAITWNSGSTYYADSVKGRFTISRDNAKNTVYLQMNSLKPEDTAVYYCNADYYFSSYRSTYDYWGQGTQVTVSS | low polyreactivity |
| QVQLVESGGGLVQAGGSLRLSCAASGRTVEQNAMGLYRQAPGKERELVASITSVGSTDYADSVKGRFTISRDNAKNTVYLQMNSLKPEDTAVYYCAKTLGSQNYDFDYWGKGTQVTVSS | low polyreactivity |
| QVQLVESGGGLVQAGGSLRLSCAASGRTVGSYVMGWYRHAPVKERELVATISRRGGTTYYADSVKARFTISRDNAKNTVYLQMNSLKPEDTAVYYCNRVIPLASYGYGYWGQGTQVTVSS | high polyreactivity |
| QVQLVESGGGLVQAGGSLRLSCAASGRTVPYAMGWYRQAPGKERELVATITYRVSTYYADSVKGRFTISRDNAKNTVYLQMNSLKPEDTEVYYCNTVTYPYVPALYDYWGQGTQVTVSS | high polyreactivity |
| QVQLVESGGGLVQAGGSLRLSCAASGRTYAYYAMGWYRQAPGKERELVAAITRGTDTHYADSVKGRFTISRDNAKNTVYLQMNSLKPEDTAVYYCAADLSQDFDYWGQGTQVTVSS | low polyreactivity |
| QVQLVESGGGLVQAGGSLRLSCAASGRTYGYNAMGWYRQAPGKERELVAAISRSGDSTYYADSVKGRFTISRDNAKNTVYLQMNSLKPEDTAVYYCATRYVTTGYDYWGQGTQVTVSS | low polyreactivity |
| QVQLVESGGGLVQAGGSLRLSCAASGRTYKYYALGWYRQARGKERELVAAITSGASTNYADSVKGRFTISRDNAKNTVYLQMNSLKPEDTAVYYCAARKAYFFDRYGYWGLGTQVTVSS | high polyreactivity |
| QVQLVESGGGLVQAGGSLRLSCAASGRTYPRYGMGWYRQAPGKERELVDTIRTGGRTNYADSVKGRFTISRDNAKNTVYLQMNSLKPEDTAVYYCATDSSKHPYSPTLLKFDYWGQGTQVTVSS | low polyreactivity |
| QVQLVESGGGLVQAGGSLRLSCAASGRTYPYYAMGWYRQAPGKEREVVAAITYRGGSTSYADSVKGRFTISRDNAKNTVDLQMNSLKPEDTAVYYCAARTWNRRSPYDYWGQGTQVTVSS | high polyreactivity |
